{
  "source": "patent US12371456B2",
  "about": "“Proteins for the treatment of epithelial barrier function disorders” (Genevive, Inc., priority 2017, dated 2025)",
  "key": {"IL-23": {"tested_on": "IL-23", "test": "IL-23 production by monocytes in co-culture TEER assay (Luminex)", "type": "cell-based, human", "settings": "pre-incubated 6 hours prior to HK E. coli; p=0.80; FIG. 2B", "method": "Production of the pro-inflammatory cytokines TNF-α and IL-23 by monocytes was measured in the tissue culture supernatant from the basolateral chamber of the co-culture TEER assay performed in Example 2. Following TEER readings, the supernatants were centrifuged at 10,000 g for 5 minutes at 4° C. to remove cell debris. Luminex analysis was performed according to the manufacturer's instructions (Magpix instrument and xPonent software version 4.2; Luminex Corporation (Austin, TX)). Luminex analysis was performed to determine the pg/ml concentration of TNF-α and IL-23 produced by monocytes. Luminex analysis utilizes a bead-based system for quantification of multiple cytokines from a single sample. Like an ELISA, Luminex beads are coated with a capture antibody, and incubation with samples allows the target to bind to the capture antibody. Beads are washed and incubated with a fluorescently labeled detection antibody for quantification of bound target. Cytometric analysis is used to differentiate bead populations, which are loaded with differential fluorescent dyes, and to quantify cytokine levels by measuring detection antibody signal. TNF-α production in untreated cells and cells pre-incubated with SG-14 for 6 hours prior to HK E. coli treatment were normalized to pg/ml concentrations elicited by HK E. coli which was set to 1.0. […]"}, "muc2": {"tested_on": "muc2", "test": "muc2 gene expression in epithelial cell monolayer (qRT-PCR)", "type": "cell-based, human", "settings": "SG-14 1 pg/ml (40 nM) 6 hours prior to HK E. coli for 24 hours; p=0.87; FIG. 4", "method": "Gene expression was measured in the epithelial cell monolayer from the apical chamber of the co-culture TEER assay described in Example 2. Total RNA was isolated from the epithelial cell monolayer, cDNA was synthesized. qRT-PCR was performed on cDNA generated from the HCT8 & HT29-MTX cells treated with SG-14 ([…]; 40 nM) for 6 hours prior to addition of HK E. coli for 24 hours. muc2 gene expression is graphed as mean fold change ±SEM. Statistical analysis was performed by a one-way ANOVA compared to HK E. coli and a Fishers LSD test was used for multiple comparisons."}, "[1]": {"tested_on": "HCT8 enterocyte and HT29-MTX goblet cell lines", "test": "Oris Cell Migration assay (epithelial cell wound healing)", "type": "cell-based, human", "settings": "48 hours; SG-14 1 μg/ml, EGF 30 ng/ml, staurosporine 100 nM; FIG. 5", "text": "The 96 well Oris Cell Migration assay containing plugs preventing cell attachment in the center of each well was used according to the manufacturer's instructions (Platypus Technologies, Madison, WI). The migration assay plates were warmed to room temperature prior to use and plugs were removed from 100% confluence wells prior to cell addition. The HCT8 enterocyte and HT29-MTX goblet cell lines were used at a 9:1 ratio with a total of 5×10^4 total cells added per well (4.5×10^4 HCT8 cells and 0.5×10^4 HT29-MTX cells). Cells were incubated at 37° C.+5% CO2 for 24 hours. Plugs were then removed from all control and sample wells. Control wells included cells treated with the diluent vehicle as the blank, 30 ng/ml epidermal growth factor (EGF) as the positive control, and 100 nM staurosporine as the negative control, all diluted in cRPMI. Sample wells contained SG-14 protein at a concentration of 1 μg/ml diluted in cRPMI. 100% and 0% wells were cultured in cRPMI. […] The green fluorescent viability dye […] was added to all wells at a concentration of […] in PBS containing 0.9 mM CaCl2) and 0.5 mM MgCl2, incubated for 30 min at 37° C.+5% CO2, the dye was removed and cells were washed in PBS containing 0.9 mM CaCl2) and 0.5 mM MgCl2 and fluorescence was measured. […] Samples were normalized between 100% and 0% samples and values expressed as a percent growth."}, "[2]": {"tested_on": "DSS model of inflammatory bowel disease", "test": "DSS model: body weight", "type": "in vivo, C57BL/6 mice", "settings": "50 nmoles/kg i.p. b.i.d., 2.5% DSS; FIG. 8", "method": "Eight-week old C57BL/6 mice were housed 5 animals were cage and given food and water ad libitum for 7 days. Following the 7-day acclimation period, treatments were initiated concurrently with addition of 2.5% DSS to the drinking water. […] The mice were treated with 2.5% dextran sodium sulfate (DSS) in their drinking water for 6 days. Treatments were continued with SG-14 or […]-GLP2 twice a day (b.i.d.) in the morning and evening (every 8 and 16 hr) with i.p. injections at 50 nmoles/kg. Fresh 2.5% DSS drinking water was prepared every 2 days. Body weight was measured daily from mice included in the DSS model described in this Example. Percent change from starting weight on day 0 was determined for each mouse. […] The graph in FIG. 8 represents data pooled from the single experiment (n=10)."}, "[3]": {"tested_on": "DSS model of inflammatory bowel disease", "test": "DSS model: colonic tissue histopathology score", "type": "in vivo, C57BL/6 mice", "settings": "FIG. 12A", "method": "Eight-week old C57BL/6 mice were housed 5 animals were cage and given food and water ad libitum for 7 days. Following the 7-day acclimation period, treatments were initiated concurrently with addition of 2.5% DSS to the drinking water. […] The mice were treated with 2.5% dextran sodium sulfate (DSS) in their drinking water for 6 days. Treatments were continued with SG-14 or Gly2-GLP2 twice a day (b.i.d.) in the morning and evening (every 8 and 16 hr) with i.p. injections at 50 nmoles/kg. Fresh 2.5% DSS drinking water was prepared every 2 days.\nColon tissue was collected from mice in the DSS model described in this Example 7. Tissues were fixed in 10% formalin, processed for paraffin embedding and sectioned. Tissue sections were stained with Hematoxylin and Eosin and scored for pathology by a pathologist specializing in gastrointestinal disease. The scoring system used multiple pathology readouts including inflammation, edema, transmural inflammation, mucosal hyperplasia, dysplasia, loss of mucosal architecture, the extent of tissue affected, and the extent of tissue affected by the most severe pathology. Each readout was scored on a scale of 0-4 and a total score was generated by totaling all readout values for each treatment. […] The graph in FIG. 12A and images in […] represent data from the single experiment (n=10)."}},
  "data": [
    {"molecule": "SG-14: Eubacterium eligens protein comprising SEQ ID NO:3; tested form expressed in E. coli, with exogenous GPLG at N-terminus and PHRD at C-terminus (protein, N-terminal GPLG and C-terminal PHRD) GCARNSTSTTTASGGETTITSAITKEDTDVTHADDAENYRVSITGDFTVTSDTSDGVTQSGSVYTITKAGEYTVTGLLSEGQLIVDAGNENEVTIVLNGTSITCSSGSPIYVKNASEVKIKSEENSFNEVIDNRNEATEDSSDDAGNAAIYATCDLKLVGKGALVVTGNYNNGIQSKDDLSIKNVIVKVTAVNNAVKVNDAVDIESGNIIAISAKGDGIKTSNSSISNKGNQKGIVTITSGNIDIYAACDGIDASYGADISGDGNLNIYTDTYSEYSEEVTSSGSSSGTSSGRDSSANKSASANTVSYVATSDTIANAPSGFGGGNMGSGNAPDMSNGNAPNMNGSSDRNKTGGNRPGMPGDFNESGNSSGQSYSTKGIKAESEINISGFTINICSTDDGIHANSDSGVLETGEDGKGTIVINGGSITISSGDDGMHADKQLDVNDGYINVVTSYEGLEAMTINLNGGKIYVYATDDGINACTGDGKTSPIVNVTGGYIDVTTTSGDTDGIDSNGNYVQTGGFVLVKGGSSSGNVSGSIDVDGTVTITGGTCVALGGVCETPVNSANAYVLGSVSFSSGSYSLKDSSGNEVISFTVDGSFSNGWICSDTLTTGSSYTLYRGADSIADWTQE", "values": [
      {"measurement": "IL-23 production normalized to HK E. coli (set to 1.0)", "setting": "IL-23", "value": 1.1},
      {"measurement": "muc2 gene expression vs HK E. coli without pre-treatment", "setting": "muc2", "value": "slight inhibition"},
      {"measurement": "Wound healing (percent growth)", "setting": "[1]", "value": "significant increase in growth"},
      {"measurement": "Body weight (percent change from day 0) vs vehicle treated DSS mice", "setting": "[2]", "value": "significantly improved body weight"},
      {"measurement": "Colon pathology scores vs positive control Gly2-GLP2", "setting": "[3]", "value": "further reduced colon pathology scores significantly"},
      {"measurement": "Colonic pathology (total histopathology score) vs DSS", "setting": "[3]; H&E sections, readouts scored 0-4", "value": "significantly reduced colonic pathology"}
    ]}
  ]
}
